biological target: T1, human FcRn/b2M (human, UniProt P61769 21-119, biotinylated); assay: SPR pH 6.0
T1 construct: bought recombinant biotinylated protein (ACRO FCM-H82W4 or Immunitrack ITF01); also called hFcRn; hFcRn/hb2M
T1 sequence (chain, as listed by the source limits assumed, chain 1 of 2): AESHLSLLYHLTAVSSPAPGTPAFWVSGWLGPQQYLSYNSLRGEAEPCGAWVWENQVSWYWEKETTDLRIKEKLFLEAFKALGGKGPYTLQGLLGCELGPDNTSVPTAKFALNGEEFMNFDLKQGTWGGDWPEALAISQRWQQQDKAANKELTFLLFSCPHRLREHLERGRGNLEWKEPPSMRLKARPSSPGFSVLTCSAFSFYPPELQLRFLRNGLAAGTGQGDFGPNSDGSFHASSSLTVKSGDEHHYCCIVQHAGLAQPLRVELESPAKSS
T1 sequence (P61769 21-119 limits assumed, chain 2 of 2): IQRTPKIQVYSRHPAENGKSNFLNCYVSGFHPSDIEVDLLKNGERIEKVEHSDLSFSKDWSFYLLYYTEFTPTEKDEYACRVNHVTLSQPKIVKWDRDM

| Binder | koff [s⁻¹] |
| --- | --- |
| T026301125 (VHH, name in Kabat numbering, tagless) VHH: EVQLVESGGGVVQPGGSLRLSCAASGFTFSEYAMYWVRQAPGKGLEWVSAISSGGGSTDYADSVKGRFTISRDNSKNTLYLQMNSLRPEDTALYYCAADTLYTSLTKYSYWGQGTLVTVSS | 0.0082 |
| T026301110 (VHH, name in Kabat numbering, tagless) VHH: EVQLVESGGGVVQPGGSLRLSCAASGFTFSEYAMYWVRQAPGKGLEWVSAISQGGGSTDYADSVKGRFTISRDNSKNTLYLQMNSLRPEDTALYYCAADTLYTDLTWYSYWGQGTLVTVSS | 0.014 |
| T026301126 (VHH, name in Kabat numbering, tagless) VHH: EVQLVESGGGVVQPGGSLRLSCAASTFTFSSYAMYWVRQAPGKGLEWVSAISSGGGSTDYADSVKGRFTISRDNSKNTLYLQMNSLRPEDTALYYCAADTLYTSLTKYSYWGQGTLVTVSS | 0.01 |
| T026301123 (VHH, name in Kabat numbering, tagless) VHH: EVQLVESGGGVVQPGGSLRLSCAASTFTFSSYDMYWVRQAPGKGLEWVSAISSGGGSTDYADSVKGRFTISRDNSKNTLYLQMNSLRPEDTALYYCAADTLYTSLTWYSYWGQGTLVTVSS | 0.0054 |
| T026301112 (VHH, name in Kabat numbering, tagless) VHH: EVQLVESGGGVVQPGGSLRLSCAASGFTFSEYDMYWVRQAPGKGLEWVSAISQGGGSTDYADSVKGRFTISRDNSKNTLYLQMNSLRPEDTALYYCAADTLYTSLTKYSYWGQGTLVTVSS | 0.0072 |
| T026301124 (VHH, name in Kabat numbering, tagless) VHH: EVQLVESGGGVVQPGGSLRLSCAASTFTFSEYAMYWVRQAPGKGLEWVSAISQGGGSTDYADSVKGRFTISRDNSKNTLYLQMNSLRPEDTALYYCAADTLYTSLTKYSYWGQGTLVTVSS | 0.059 |
| T026301109 (VHH, name in Kabat numbering, tagless) VHH: EVQLVESGGGVVQPGGSLRLSCAASTFTFSSYDMYWVRQAPGKGLEWVSAISQGGGSTDYADSVKGRFTISRDNSKNTLYLQMNSLRPEDTALYYCAADTLYTSLTWYSYWGQGTLVTVSS | 0.0013 |
| T026301113 (VHH, name in Kabat numbering, tagless) VHH: EVQLVESGGGVVQPGGSLRLSCAASGFTFSEYAMYWVRQAPGKGLEWVSAISQGGGSTDYADSVKGRFTISRDNSKNTLYLQMNSLRPEDTALYYCAADTLYTSLTKYSYWGQGTLVTVSS | 0.021 |
| T026301121 (VHH, name in Kabat numbering, tagless) VHH: EVQLVESGGGVVQPGGSLRLSCAASTFTFSEYDMYWVRQAPGKGLEWVSAISQGGGSTDYADSVKGRFTISRDNSKNTLYLQMNSLRPEDTALYYCAADTLYTSLTWYSYWGQGTLVTVSS | 0.0018 |
| T026301127 (VHH, name in Kabat numbering, tagless) VHH: EVQLVESGGGVVQPGGSLRLSCAASTFTFSEYDMYWVRQAPGKGLEWVSAISSGGGSTDYADSVKGRFTISRDNSKNTLYLQMNSLRPEDTALYYCAADTLYTSLTSYSYWGQGTLVTVSS | 0.0095 |
| T026301128 (VHH, name in Kabat numbering, tagless) VHH: EVQLVESGGGVVQPGGSLRLSCAASGFTFSSYAMYWVRQAPGKGLEWVSAISQGGGSTDYADSVKGRFTISRDNSKNTLYLQMNSLRPEDTALYYCAADTLYTDLTKYSYWGQGTLVTVSS | 0.032 |

biological target: T1, human FcRn/b2M; assay: SPR off-rate pH 6.0

| Binder | binding result |
| --- | --- |
| T026301049 (VHH, name in Kabat numbering, tagless) VHH: EVQLVESGGGVVQPGGSLRLSCAASTFTFSEYDMYWVRQAPGKGLEWVSAISSGGGSTDYADSVKGRFTISRDNSKNTLYLQMNSLRPEDTALYYCAADTLYTDLTWYSYWGQGTLVTVSS | no binding |
| T026301053 (VHH, name in Kabat numbering, tagless) VHH: EVQLVESGGGVVQPGGSLRLSCAASTFTFSEYDMYWVRQAPGKGLEWVSAISSGGGSTDYADSVKGRFTISRDNSKNTLYLQMNSLRPEDTALYYCAADTLYTSLTKYSYWGQGTLVTVSS | no binding |

Reference: patent US20240132624A1 (Ablynx, published 2024)
